Laboratory results taken from EP4786492A1.

How the values were obtained:
[1] = target: human DLL3 endogenously expressed on SHP77 and NCI-H82 cells (human) (UniProt Q9NYJ7); experiment: FACS SHP77 cells, 0.8 nM
[2] = target: human DLL3 endogenously expressed on SHP77 and NCI-H82 cells (human) (UniProt Q9NYJ7); experiment: FACS SHP77 cells, 0.032 nM
[3] = target: human DLL3 endogenously expressed on SHP77 and NCI-H82 cells (human) (UniProt Q9NYJ7); experiment: FACS SHP77 cells, 0.0064 nM
[4] = target: human DLL3 endogenously expressed on SHP77 and NCI-H82 cells (human) (UniProt Q9NYJ7); experiment: FACS SHP77 cells, 4 nM
[5] = target: human DLL3 endogenously expressed on SHP77 and NCI-H82 cells (human) (UniProt Q9NYJ7); experiment: FACS SHP77 cells, 100 nM
[6] = target: human DLL3 endogenously expressed on SHP77 and NCI-H82 cells (human) (UniProt Q9NYJ7); experiment: FACS SHP77 cells, 0.00128 nM
[7] = target: human DLL3 endogenously expressed on SHP77 and NCI-H82 cells (human) (UniProt Q9NYJ7); experiment: FACS SHP77 cells, 0.16 nM
[8] = target: human DLL3 endogenously expressed on SHP77 and NCI-H82 cells (human) (UniProt Q9NYJ7); experiment: FACS SHP77 cells, 20 nM

Sequence of human DLL3 endogenously expressed on SHP77 and NCI-H82 cells (human) (Q9NYJ7 27-618): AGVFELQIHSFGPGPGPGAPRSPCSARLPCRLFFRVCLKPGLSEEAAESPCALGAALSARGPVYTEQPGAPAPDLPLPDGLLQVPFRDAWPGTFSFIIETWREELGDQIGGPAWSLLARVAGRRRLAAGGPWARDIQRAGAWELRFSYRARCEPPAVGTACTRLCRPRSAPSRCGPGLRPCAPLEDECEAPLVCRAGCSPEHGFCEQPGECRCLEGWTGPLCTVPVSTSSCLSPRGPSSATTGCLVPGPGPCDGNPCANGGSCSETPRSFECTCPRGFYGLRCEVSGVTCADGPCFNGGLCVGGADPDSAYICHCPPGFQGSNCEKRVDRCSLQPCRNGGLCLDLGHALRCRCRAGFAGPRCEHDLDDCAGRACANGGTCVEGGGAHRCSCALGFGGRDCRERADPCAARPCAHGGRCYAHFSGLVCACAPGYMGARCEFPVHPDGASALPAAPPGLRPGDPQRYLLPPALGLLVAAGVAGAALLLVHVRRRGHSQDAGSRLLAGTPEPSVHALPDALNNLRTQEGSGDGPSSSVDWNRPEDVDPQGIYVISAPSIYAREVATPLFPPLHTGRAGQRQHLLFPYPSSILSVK

Row | MFI [1] [MFI] | MFI [2] [MFI] | MFI [3] [MFI] | MFI [4] [MFI] | MFI [5] [MFI] | MFI [6] [MFI] | MFI [7] [MFI] | MFI [8] [MFI] | Binder
1 | 525 | 227 | 135 | 563 | 521 | 103 | 406 | 634 | mab007 scFv-hFc (Fc fusion, not shown: small tags and cut ends; a dimerising Fc or GST) scFv (part 1 of 2): DVQITQSPSYLAASPGETITINCRASTSISKYLAWYQERPGKTNKLLIYSGSTLQSGIPSRFRGSGSGTDFTLTISSLEPEDFAMYYCQQHHVYPYTFGGGTKLEIK scFv (part 2 of 2): QVQLQQPGAELVRPGTSVKLSCKASGYTFTSYWMHWVKQRPGQGLEWIGVIDPSDSLANYNQEFKGKATLTVDTSSSTAYMQLSSLTSEDSAVYYCARDSTVVAPMDYWGQGTSVTVSS
2 | 643 | 267 | 152 | 664 | 876 | 112 | 497 | 718 | mab006 scFv-hFc (Fc fusion, not shown: small tags and cut ends; a dimerising Fc or GST) scFv (part 1 of 2): DVQITQSPSYLAASPGETITINCRATKSISKYLAWYQEKPGKTNKLLIFSGSTLQSGIPSRFRGSGSGTDFTLTISSLEPEDFAMYYCQQHHEYPYTFGGGTKLEIK scFv (part 2 of 2): QVQLQQPGAELVRPGTSVKLSCKASGYTFTSYWMHWVRQRPGQGLEWIGVIDPSDSLANYNQEFKGKATLTVDTSSSTAYMQLSSLTSEDSAVYYCARDSTVVAPMDYWGQGTSVTVSS
3 | 417 | 146 | 103 | 508 | 822 | 90 | 239 | 608 | mab011 scFv-hFc (Fc fusion, not shown: small tags and cut ends; a dimerising Fc or GST) scFv (part 1 of 2): DIVLTQSPATLSVTPGDSVSLSCRASQSISNNLHWYQQKSHESPRLLIKYASQSISGIPSRFSGSGSGTDFTLSINSVETEDFGMYFCQQSNSWPWTFGGGTKLEIK scFv (part 2 of 2): EVQLQQSGPELVKPGASVKISCKASGYTFTDYYMNWVKQSHGKSLEWIGDISPNYGGTNYNQKFKGKATLTVDKSSSTACMELRSLTSEDSAVYYCTRSFYYYGTGYDWYFDVWGTGTTVTVSS
4 | 461 | 137 | 104 | 681 | 1200 | 96 | 237 | 829 | mab014 scFv-hFc (Fc fusion, not shown: small tags and cut ends; a dimerising Fc or GST) scFv (part 1 of 2): DIQMTQSSSSFSVSLGDRVTITCKASEDIYNRLAWYQQKPGNTPRLLISGATSLETGVPSRFSGSGSGKDFTLSITSLQTEDVATYYCQQYWSLPWTFGGGTKLEIK scFv (part 2 of 2): EVQLHQSGPELVKPGTSVKISCKASGYTFTDYYMNWVKQSHGKSLEWIGDINPNHGDTGYNQKFTGKATLTVDKSSSTAYMELRSLTSEDSAVYYCARNFFYYGTTYGWYFDVWGTGTTVTVSS
5 | 208 | 98 | 90 | 365 | 412 | 82 | 130 | 468 | mab008 scFv-hFc (Fc fusion, not shown: small tags and cut ends; a dimerising Fc or GST) scFv (part 1 of 2): DIVMTQSQKFMSTSVGDRVSITCKASQNVGTAVAWYQQKPGQSPKLLIFSASIRYTGVPDRFTGSGSGTDFTLTISNMQSEDLADYFCQQYSSSPYTFGGGTKLEIK scFv (part 2 of 2): EVQLQQSGPVLVKPGASVKMSCKASGYTFTDYYMNWVKRSHGKSLEWIGIINPYNGGTSYNQKFRGKATLTVDKSSNTAYMELNSLTSEDSAVYYCSRYDYDYDVEGAMDYWGQGTSVTVSS
6 | 164 | 98 | 94 | 337 | 1100 | 94 | 110 | 729 | mab012 scFv-hFc (Fc fusion, not shown: small tags and cut ends; a dimerising Fc or GST) scFv (part 1 of 2): DVLMTQTPLSLPVSLGDQASISCRSSQSIVHSDGNTYLEWYLQKPGQSPKLLIYKVSNRFSGVPDRFSGSGSGTDFTLKISRVEAEDLGFYYCFQGSHVPFTFGSGTKLEIK scFv (part 2 of 2): QVQLQQSGPELVKPGASVKISCKASGYTFTDYYIHWVKQRPGQGLEWIGWTLPGSGSPYYNEKFKGKATLTVDKSSSTAYMLLSSLTSEDSAVYFCARWHYYYGSSYHFDYWGQGTTLTVSS
7 | 502 | 202 | 121 | 546 | 790 | 96 | 391 | 653 | mab016 scFv-hFc (Fc fusion, not shown: small tags and cut ends; a dimerising Fc or GST) scFv (part 1 of 2): DIVMTQSQKFMSTTIGDRVSITCKASQNVGTTVAWYQQKPGQSPNLLLYSTSNRFTGVPDRFTGSGSGTDFTLTITNMQSEDLADYFCQQYNNYPLTFGGGTKLEIK scFv (part 2 of 2): EVNLEESGGGLVQPGGSMKLSCVASGFAFSNFWMQWVRQSPEKGLEWVAQIRLKSDNYAAHYAESVKGRFTISRDDSKSSVYLQLNNLRAEDTGTYYCTQGNWVGFAYWGQGTLVTVSA
